Measured values from article PMC2111872.

B1: chicken erythrocyte histone H5 (natural protein)
chain: MTESLVLSPAPAKPKRVKASRRSASHPTYSEMIAAAIRAEKSRGGSSRQSIQKYIKSHYKVGHNADLQIKLSIRRLLAAGVLKQTKGVGASGSFRLAKSDKAKRSPGKKKKAVRRSTSPKKAARPRKARSPAKKPKATARKARKKSRASPKKAKKPKTVKAKSRKASKAKKVKRSKPRAKSGARKSPKKK

The molecules below were run against H1- and H5-depleted chicken erythrocyte chromatin (DNA-core histone complex) (chicken (endogenous in erythrocytes)) (assay: co-sedimentation).
Molecule “calf thymus histone H1 (from UniProt P02253 1-213) (natural protein)” has a stoichiometry N (linker histone molecules per nucleosome) of 2. For “chicken erythrocyte histone H1 (from UniProt P09987 1-218) (natural protein)”, the stoichiometry N (linker histone molecules per nucleosome) was 2. B1 gave a stoichiometry N (linker histone molecules per nucleosome) of 2.
